The values below come from paper PMC8317929 (mAbs, 2021).

Usually Kd stands for the free concentration of one partner at which half of the binding sites on the other are occupied at equilibrium, for simple one-to-one binding.

Test [1] has as its target SARS-CoV-2 RBD recombinant protein (SARS-CoV-2, Wuhan-Hu-1 (QHD43416.1), UniProt P0DTC2). Kind of test: BLI. A general note: Biolayer interferometry detects binding as a change in optical thickness at a sensor tip.
Test [2] addresses SARS-CoV RBD recombinant protein (SARS-CoV; strain of construct not …, UniProt Q19QX0). The test can be described thus: BLI.

B1: MW06 (antibody, V domains shown)
VH: EVQLLESGGGLVQPGGSLRLSCAASGFTFSSYAMNWVRQAPGKGLEWVSVISGSGGSTYYADSVRGRFTISRDNSKNTLYLQMNSLRAEDTAVYCCAKGYYYDSSGYYFREDAFDIWGQGTLVTVSS
VL: DIQMTQSPSAMSASVGDRVTITCRASQGISNYLAWFQQKPGKVPKRLIYAASSLQSGVPSRFSGSGSGTEFTLTISSLQPEDFATYYCLQHNSYPYTFGQGTKLEIK
On to B1, for which the Kd in test [1] turned out to be 5.48 nM; in test [2] it was 12.3 nM.

B2: MW05 (antibody, V domains shown)
VH: EVQLVQSGAEVKKPGSSVKVSCKASGGTFSSYAISWVRQAPGQGLEWMGRIIPIFGSSNYAQKFQGRVTITADESTSTAYMELSSLRSEDTAVYYCAESPLGGGSGYSVSWFDPWGQGTLVTVSS
VL: not shown
Regarding B2, in test [1], the binding result is on record as “binds”.
